Measured values taken from PMC1934993 (Nucleic Acids Research, 2007).

Target: the molecule itself
Assay: crystal structure

B1: C-terminally truncated Saccharomyces cerevisiae tyrosyl-tRNA synthetase (SceTyrRS, residues 1-364) (enzyme, UniProt P36421 1-364, looked up)
chain: MSSAATVDPNEAFGLITKNLQEVLNPQIIKDVLEVQKRHLKLYWGTAPTGRPHCGYFVPMTKLADFLKAGCEVTVLLADLHAFLDNMKAPLEVVNYRAKYYELTIKAILRSINVPIEKLKFVVGSSYQLTPDYTMDIFRLSNIVSQNDAKRAGADVVKQVANPLLSGLIYPLMQALDEQFLDVDCQFGGVDQRKIFVLAEENLPSLGYKKRAHLMNPMVPGLAQGGKMSASDPNSKIDLLEEPKQVKKKINSAFCSPGNVEENGLLSFVQYVIAPIQELKFGTNHFEFFIDRPEKFGGPITYKSFEEMKLAFKEEKLSPPDLKIGVADAINELLEPIRQEFANNKEFQEASEKGYPVATPQKSK
  stoichiometry N: 2
